In patent US11407840B2, “Antibodies to M(H)DM2/4 and their use in diagnosing and treating cancer” (NomoCan Pharmaceuticals LLC, priority 2017, dated 2022):

B1: NMC-204: mouse monoclonal antibody, IgG3 isotype, binds NMC-P2 (SEQ ID NO:2); VH SEQ ID NO:38, VL SEQ ID NO:39 (antibody, V domains shown)
VH: EVQLQESGSVLVRPGASVKLSCKASGDTLSGSWMHWAMQRPGQGLEWIGEIHLNRGTTNYNEKFKGKATVTVDTSSSTAYVDLSSLTSEDSAVYYCARSPGFAYWGQGTLVTVSA
VL: GIVMTQAAPSVPVTPGESVSISCRSSKSLLHSNGNSYLYWFLQRPGQSPQLLIYRMSNLASGVPDRFSGSGSGTAFTLRITRVEAEDVGVYYCMQHLEYPFTFGSGTKLEIK
modifications: mAb NMC-204 Heavy Chain Variable Region; mAb NMC-204 Light Chain Variable Region
B2: NMC-103: mouse monoclonal antibody, IgG1 isotype, binds NMC-P1 (SEQ ID NO:1); VH SEQ ID NO:36, VL SEQ ID NO:37 (antibody, V domains shown)
VH: EVQLQESGGGLVQPGGSLRLSCTTSGFTFTHYYMSWVRQPPGKALEWLGFIRNKAKGYTAEYSASVKGRFTISRDNSQSILYLQMNTLRPEDSATYYCARDIGDNWGQGTLVTVSS
VL: DIVMTQAAFSNPVTLGTSASISCRSSKNLLHSNGITYLYWYLQRPGQSPQLLISRVSNLASGVPNRFSGSESGTDFTLRISRVEAEDVGVYFCAQLLELPYTFGGGTKLEIK
modifications: mAb NMC-103 Heavy Chain Variable Region; mAb NMC-103 Light Chain Variable Region

Tests used:
[1] = system: mouse Lewis Lung cancer LL/2 cells (subcutaneous tumors); test: LL/2 syngeneic mouse model of lung cancer; assay type: in vivo, mouse (C57BL/6); settings: day 21; 0.4 mg/kg i.p. 3 times a week for 3 weeks, started with tumor cell inoculation; FIG. 16
Procedure: Methodology used (Syngeneic Mouse Models of lung, colon and pancreatic cancer): To investigate the anti-tumor effects of HDM2-specific antibodies on lung, colon and pancreatic tumors in vivo, three well-known syngeneic mouse models of lung, colon and pancreatic cancer were used (Sharma et al, 1999, J. Immunol. 163 (9):5020-5028; McIntyre, 2015, Bioassays 37(8):909-920; Li, et al, 2015, Sci. Rep. 5:7856). Subcutaneous tumors were prepared by implanting either mouse Lewis Lung cancer LL/2 cells (2.5×10^5 cells/mouse), mouse colon cancer MC-38 cells (5×10^5 cells/mouse) or mouse pancreatic cancer Panc-2 cells (2×10^6 cells/mouse) in the right flanks of 8-week-old female C57BL/6 mice (n=6-7). The mice were returned to their respective cages after tumor implantation. From day 7 after tumor implantation, the tumor volumes were measured 2 times/week with a digital caliper. In the case of MC-38 and Panc-2 study, treatment started when the tumors reached an average of 70-80 mm^3. In the case of LL/2 study, tumor cell inoculation and treatment were initiated simultaneously. Mice were micro-chipped and registered following tumor implantation. […]

[2] = system: Human pancreatic cancer MIAPaCa-2 cells; test: Complement-mediated cytotoxicity (CDC) with normal human serum, PI staining; assay type: cell-based; settings: antibody 30 μg/ml; NHS 1:10; 2 hours; FIG. 13
Procedure: Methodology used: Cells seeded in 24-well dishes were grown overnight at 37° C. in a humidified atmosphere supplied with 5% CO2-95% air mixture. The following day the cells were thoroughly washed with ice-cold PBS and incubated with HDM2-specific mAb NMC-103 diluted in culture medium containing 1% BSA to a final antibody concentration of 30 μg/ml. After 30 min, NHS was added to the cells at a final concentration of 1:10 in the culture medium with 1%) BSA together with 1% propidium iodide (PI) solution. Cells were then incubated with NHS for 2 hours and images were taken using EVOS FL fluorescent microscope (Life Technologies).

[3] = system: mouse pancreatic cancer Panc-2 cells (subcutaneous tumors); test: Panc-2 syngeneic mouse model of pancreatic cancer; assay type: in vivo, mouse (C57BL/6)
Procedure: Methodology used (Syngeneic Mouse Models of lung, colon and pancreatic cancer): To investigate the anti-tumor effects of HDM2-specific antibodies on lung, colon and pancreatic tumors in vivo, three well-known syngeneic mouse models of lung, colon and pancreatic cancer were used (Sharma et al, 1999, J. Immunol. 163 (9):5020-5028; McIntyre, 2015, Bioassays 37(8):909-920; Li, et al, 2015, Sci. Rep. 5:7856). Subcutaneous tumors were prepared by implanting either mouse Lewis Lung cancer LL/2 cells (2.5×10^5 cells/mouse), mouse colon cancer MC-38 cells (5×10^5 cells/mouse) or mouse pancreatic cancer Panc-2 cells (2×10^6 cells/mouse) in the right flanks of 8-week-old female C57BL/6 mice (n=6-7). The mice were returned to their respective cages after tumor implantation. From day 7 after tumor implantation, the tumor volumes were measured 2 times/week with a digital caliper. In the case of MC-38 and Panc-2 study, treatment started when the tumors reached an average of 70-80 mm^3. In the case of LL/2 study, tumor cell inoculation and treatment were initiated simultaneously. Mice were micro-chipped and registered following tumor implantation. […] All tumors were injected subcutaneously and all treatments were performed by intraperitoneal injection. Any mouse displaying prolonged adverse clinical signs, or with body weight loss exceeding 15% relative to body weight at day 0, was euthanized.
The efficacy of FIDM2-specific antibody treatment and standard of care chemotherapy was further compared. […] As shown in the tumor volume graph of FIG. 19, when tumors in mice reached approximately 70 mm^3, mice were divided into 4 groups (n=6) that received: A) isotype control mouse IgG1 (2 mg/kg); B) low dose Gemcitabine (25 mg/kg) and nab-Paclitaxel (5 mg/kg); C) NMC-103 (2 mg/kg); or D) a combination of low dose Gemcitabine (25 mg/kg), nab-Paclitaxel (5 mg/kg) and NMC-103 (2 mg/kg). All drugs were injected intraperitoneally 2 times a week for 3 weeks. After receiving the 6th dose on day 19, treatments were stopped for 2 weeks.
The anti-tumor efficacy of NMC-103 and of its combination with pancreatic cancer standard of care treatment Gemcitabine (G) and nab-Paclitaxel (nP) was further evaluated in vivo utilizing the Panc-2 syngeneic mouse model of pancreatic cancer discussed above.
All drugs were injected intraperitoneally 2 times a week for 4 weeks.
The mice were then randomly divided in 2 groups that received a single dose of: A) isotype control mouse IgG1 (10 mg/kg) or B) NMC-103 (10 mg/kg).

| Molecule | tumor volume [1] | complement-mediated cytotoxicity (nuclear uptake of Propidium Iodide) [2] | tumor size 6 days after a single i.p. injection ([3]; 10 mg/kg single dose after 19 days of Gemcitabine 25 mg/kg + nab-Paclitaxel 5 mg/kg, from 438 mm^3, FIG. 30) | Kaplan Meier survival analysis versus chemotherapy alone or control antibody ([3]; conditions of FIG. 27, FIG. 28) | average tumor size / measurement ([3]; day 34, NMC-103 10 mg/kg, Gemcitabine 25 mg/kg, nab-Paclitaxel 5 mg/kg i.p. 2 times a week for 4 weeks, surviving mice, NMC-103 group values ascribed to scars and inflammation, FIG. 27) | average tumor volume ([3]; day 35, i.p. 2 times a week for 3 weeks (6th dose day 19), then 2 weeks off, antibody 2 mg/kg, Gemcitabine 25 mg/kg, nab-Paclitaxel 5 mg/kg, start approx 70 mm^3, n=6, FIG. 19) | tumor growth during 4 further weeks without drug treatment (to day 62) ([3]; groups C (n=8) and D (n=7) of FIG. 27) | tumor 10 days after re-challenge with Panc-2 cells ([3]; re-challenge at day 62, 2×10^6 cells/mouse s.c. left dorsal flank, previously treated mice of FIG. 27, FIG. 29) |
| --- | --- | --- | --- | --- | --- | --- | --- | --- |
| B1 | 1446 mm^3 | – | – | – | – | – | – | – |
| B2 | – | triggered complement-mediated cytotoxicity | 233 mm^3 | significant survival benefit | 230 mm^3 | 1523 mm^3 | no sign of tumor growth beyond the initial scar size | no tumor was observed |
